This is an account of results in patent publication CN111138529A (INST MILITARY MEDICINE ACADEMY MILITARY SCIENCES PLA, dated 2020).

For the test, the target named is T1, RESTV GP (RESTV, UniProt Q66799 34-651).
T1 sequence: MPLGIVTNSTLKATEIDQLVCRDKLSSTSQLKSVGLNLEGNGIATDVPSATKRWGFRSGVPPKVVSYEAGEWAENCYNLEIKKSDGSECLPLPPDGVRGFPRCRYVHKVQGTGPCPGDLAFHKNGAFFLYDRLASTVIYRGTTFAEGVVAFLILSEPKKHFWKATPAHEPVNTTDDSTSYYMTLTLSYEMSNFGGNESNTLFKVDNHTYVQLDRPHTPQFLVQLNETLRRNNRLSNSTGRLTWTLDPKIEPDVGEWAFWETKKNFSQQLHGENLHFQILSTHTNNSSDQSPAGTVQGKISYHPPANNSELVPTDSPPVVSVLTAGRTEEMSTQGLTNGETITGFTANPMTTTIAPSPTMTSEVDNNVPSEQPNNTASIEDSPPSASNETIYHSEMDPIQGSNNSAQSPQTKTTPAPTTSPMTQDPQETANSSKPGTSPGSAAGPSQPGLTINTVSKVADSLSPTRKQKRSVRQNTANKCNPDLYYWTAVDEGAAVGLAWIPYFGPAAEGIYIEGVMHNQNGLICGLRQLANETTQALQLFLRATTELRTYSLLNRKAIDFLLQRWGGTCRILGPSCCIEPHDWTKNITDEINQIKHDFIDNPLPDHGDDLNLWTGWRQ
Put plainly: ELISA, coated GP 1μg/mL.

B1: 单克隆抗体5E1 (antibody, V domains shown)
VH: EVQLVESGGGVVQSGRSLRLSCAASGFTFSNYGMHWVRRAPGKGLEWVAVISYDGSIKYYADAVQGRFTISRDNSKNTLYLQMNSVRAEDRAVYYCAKGSRVVATLNFFDLWGRGTLVTVSS
VL: AIRMTQSPSSLSASVGDRVTITCRASQDIRNFLAWYQQKPEKAPKLLVYTASRRESGVPPRLSGSGSGTEYTLTISSLQPEDFATYYCQQYYSTPPTFGQGTKVDIKT
In the case of B1, the binding result is “no binding”.
